Data published in US20020035736A1.

How the values were obtained:
[1] = biological target: native human HER2 (human) (UniProt P04626); experiment: cell-based or functional assay
[2] = biological target: native human HER2 (human) (UniProt P04626); experiment: inhibition of 125I-rHRGβ1 binding to MCF7 monolayers on ice; labeled ligand rHRGβ1

HRG stimulation of p180 tyrosine phosphorylation in MCF7 cells [1] | maximum inhibition of HRG binding [2] | inhibition of cell proliferation of SK-BR-3 cells (crystal violet) [1] | Substance
< 25 % of control | 74% |  | murine monoclonal antibody 2C4
 |  | 66% | murine monoclonal antibody 4D5
